Publication doi:10.1101/2023.04.03.535215

Molecular target: Recombinant SARS-CoV-2 spike protein (SARS-CoV-2) (UniProt P0DTC2)
Assay: ELISA

“Native human surfactant protein A (from UniProt Q8IWL2 21-248) (natural protein)” showed a percent decrease of binding in 10 mM EDTA of 46%.
